The results in this text go back to the supplement of paper PMC5998384.

The test system of data set [1] is HeLa Kyoto. Put plainly: thermal stability score vs G1/S (z-score of summed log2 fold changes over temperatures); higher = more thermally stable than in G1/S.
Data set [2] has as its system HeLa Kyoto. Put plainly: solubility in G1/S (NP-40 vs SDS abundance) (log2 ratio); higher = more soluble. As to conditions: cell cycle stage: G1/S.
Data set [3] concerns HeLa Kyoto. Put plainly: solubility change mitosis vs G1/S (difference of NP-40 vs SDS log2 ratios) (log2 ratio difference); higher = more soluble in mitosis.
The subject of data set [4] is HeLa Kyoto. The data set can be described thus: melting temperature (median over replicates), in situ; higher = more thermally stable.
Where [5] appears, read: cell cycle stage: early G1 (4.5 h after nocodazole release).
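Wherever melting temperature (median over replicates), in situ is given: HeLa Kyoto cells synchronized by double thymidine or nocodazole block, proteins quantified by TMT10plex mass spectrometry, three independent biological replicates.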
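Wherever solubility change mitosis vs G1/S (difference of NP-40 vs SDS log2 ratios) is given: synchronized HeLa Kyoto cells (double thymidine block for G1/S, nocodazole release for mitosis), protein amounts in NP-40 versus SDS lysates quantified by mass spectrometry, three biological replicates.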
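Wherever solubility in G1/S (NP-40 vs SDS abundance) is given: HeLa Kyoto cells arrested at G1/S by double thymidine block, proteins quantified by TMT10plex mass spectrometry in mild NP-40 versus SDS extracts, three biological replicates.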
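Wherever thermal stability score vs G1/S (z-score of summed log2 fold changes over temperatures) is given: synchronized HeLa Kyoto cells, proteins quantified by TMT10plex mass spectrometry, three biological replicates, mitosis taken 0.5 h after nocodazole release, G1/S directly after double thymidine block.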

Consider “MAAAAAEQQQFYLLLGNLLSPDNVVRKQAEETYENIPGQSKITFLLQAIRNTTAAEEARQMAAVLLRRLLSSAFDEVYPALPSDVQTAIKSELLMIIQMETQSSMRKKVCDIAAELARNLIDEDGNNQWPEGLKFLFDSVSSQNVGLREAALHIFWNFPGIFGNQQQHYLDVIKRMLVQCMQDQEHPSIRTLSARATAAFILANEHNVALFKHFADLLPGFLQAVNDSCYQNDDSVLKSLVEIADTVPKYLRPHLEATLQLSLKLCGDTSLNNMQRQLALEVIVTLSETAAAMLRKHTNIVAQTIPQMLAMMVDLEEDEDWANADELEDDDFDSNAVAGESALDRMACGLGGKLVLPMIKEHIMQMLQNPDWKYRHAGLMALSAIGEGCHQQMEGILNEIVNFVLLFLQDPHPRVRYAACNAVGQMATDFAPGFQKKFHEKVIAALLQTMEDQGNQRVQAHAAAALINFTEDCPKSLLIPYLDNLVKHLHSIMVLKLQELIQKGTKLVLEQVVTSIASVADTAEEKFVPYYDLFMPSLKHIVENAVQKELRLLRGKTIECISLIGLAVGKEKFMQDASDVMQLLLKTQTDFNDMEDDDPQISYMISAWARMCKILGKEFQQYLPVVMGPLMKTASIKPEVALLDTQDMENMSDDDGWEFVNLGDQQSFGIKTAGLEEKSTACQMLVCYAKELKEGFVEYTEQVVKLMVPLLKFYFHDGVRVAAAESMPLLLECARVRGPEYLTQMWHFMCDALIKAIGTEPDSDVLSEIMHSFAKCIEVMGDGCLNNEHFEELGGILKAKLEEHFKNQELRQVKRQDEDYDEQVEESLQDEDDNDVYILTKVSDILHSIFSSYKEKVLPWFEQLLPLIVNLICPHRPWPDRQWGLCIFDDVIEHCSPASFKYAEYFLRPMLQYVCDNSPEVRQAAAYGLGVMAQYGGDNYRPFCTEALPLLVRVIQSADSKTKENVNATENCISAVGKIMKFKPDCVNVEEVLPHWLSWLPLHEDKEEAVQTFNYLCDLIESNHPIVLGPNNTNLPKIFSIIAEGEMHEAIKHEDPCAKRLANVVRQVQTSGGLWTECIAQLSPEQQAAIQELLNSA [IPO5]”, for which the thermal stability score came to 1.46 with HeLa Kyoto [1] (setting [5]) and 1.41 with HeLa Kyoto [1] (cell cycle stage: mitosis). Besides, the “solubility in G1/S (log2)” value in the data set with HeLa Kyoto [2] was 0.177. Moreover, in the data set with HeLa Kyoto [3], the “solubility change mitosis (log2)” value is -0.0935. Further, the melting temperature in the data set on HeLa Kyoto [4] (cell cycle stage: G1/S) stood at 54 °C; in the data set with HeLa Kyoto [4] (cell cycle stage: mitosis), 53.5 °C.

Regarding “MAAAAASLRGVVLGPRGAGLPGARARGLLCSARPGQLPLRTPQAVALSSKSGLSRGRKVMLSALGMLAAGGAGLAMALHSAVSASDLELHPPSYPWSHRGLLSSLDHTSIRRGFQVYKQVCASCHSMDFVAYRHLVGVCYTEDEAKELAAEVEVQDGPNEDGEMFMRPGKLFDYFPKPYPNSEAARAANNGALPPDLSYIVRARHGGEDYVFSLLTGYCEPPTGVSLREGLYFNPYFPGQAIAMAPPIYTDVLEFDDGTPATMSQIAKDVCTFLRWASEPEHDHRKRMGLKMLMMMALLVPLVYTIKRHKWSVLKSRKLAYRPPK [CYC1]”, the values for the thermal stability score in the data set on HeLa Kyoto [1] (setting [5]) and with HeLa Kyoto [1] (cell cycle stage: mitosis) were -5.79 and -6.58, respectively. In addition, the “solubility in G1/S (log2)” value in the data set on HeLa Kyoto [2] was found to be 0.869. Also, the “solubility change mitosis (log2)” value in the data set with HeLa Kyoto [3] was -0.106. The melting temperature in the data set on HeLa Kyoto [4] (cell cycle stage: G1/S) was found to be 54.5 °C; in the data set with HeLa Kyoto [4] (cell cycle stage: mitosis), 53.5 °C.

Consider “MAAAAECDVVMAATEPELLDDQEAKREAETFKEQGNAYYAKKDYNEAYNYYTKAIDMCPKNASYYGNRAATLMMLGRFREALGDAQQSVRLDDSFVRGHLREGKCHLSLGNAMAACRSFQRALELDHKNAQAQQEFKNANAVMEYEKIAETDFEKRDFRKVVFCMDRALEFAPACHRFKILKAECLAMLGRYPEAQSVASDILRMDSTNADALYVRGLCLYYEDCIEKAVQFFVQALRMAPDHEKACIACRNAKALKAKKEDGNKAFKEGNYKLAYELYTEALGIDPNNIKTNAKLYCNRGTVNSKLRKLDDAIEDCTNAVKLDDTYIKAYLRRAQCYMDTEQYEEAVRDYEKVYQTEKTKEHKQLLKNAQLELKKSKRKDYYKILGVDKNASEDEIKKAYRKRALMHHPDRHSGASAEVQKEEEKKFKEVGEAFTILSDPKKKTRYDSGQDLDEEGMNMGDFDPNNIFKAFFGGPGGFSFEASGPGNFFFQFG [DNAJC7]”, for which the thermal stability score with HeLa Kyoto [1] (setting [5]) is 0.609; with HeLa Kyoto [1] (cell cycle stage: mitosis), 1.11. Also, the “solubility in G1/S (log2)” value with HeLa Kyoto [2] was found to be 0.556. In the data set with HeLa Kyoto [3], the “solubility change mitosis (log2)” value is -0.0134. Besides, the melting temperature with HeLa Kyoto [4] (cell cycle stage: G1/S) stood at 48.8 °C; in the data set with HeLa Kyoto [4] (cell cycle stage: mitosis) it was 49.3 °C.

As for “MAAAAGAAAAAAAEGEAPAEMGALLLEKETRGATERVHGSLGDTPRSEETLPKATPDSLEPAGPSSPASVTVTVGDEGADTPVGATPLIGDESENLEGDGDLRGGRILLGHATKSFPSSPSKGGSCPSRAKMSMTGAGKSPPSVQSLAMRLLSMPGAQGAAAAGSEPPPATTSPEGQPKVHRARKTMSKPGNGQPPVPEKRPPEIQHFRMSDDVHSLGKVTSDLAKRRKLNSGGGLSEELGSARRSGEVTLTKGDPGSLEEWETVVGDDFSLYYDSYSVDERVDSDSKSEVEALTEQLSEEEEEEEEEEEEEEEEEEEEEEEEDEESGNQSDRSGSSGRRKAKKKWRKDSPWVKPSRKRRKREPPRAKEPRGVNGVGSSGPSEYMEVPLGSLELPSEGTLSPNHAGVSNDTSSLETERGFEELPLCSCRMEAPKIDRISERAGHKCMATESVDGELSGCNAAILKRETMRPSSRVALMVLCETHRARMVKHHCCPGCGYFCTAGTFLECHPDFRVAHRFHKACVSQLNGMVFCPHCGEDASEAQEVTIPRGDGVTPPAGTAAPAPPPLSQDVPGRADTSQPSARMRGHGEPRRPPCDPLADTIDSSGPSLTLPNGGCLSAVGLPLGPGREALEKALVIQESERRKKLRFHPRQLYLSVKQGELQKVILMLLDNLDPNFQSDQQSKRTPLHAAAQKGSVEICHVLLQAGANINAVDKQQRTPLMEAVVNNHLEVARYMVQRGGCVYSKEEDGSTCLHHAAKIGNLEMVSLLLSTGQVDVNAQDSGGWTPIIWAAEHKHIEVIRMLLTRGADVTLTDNEENICLHWASFTGSAAIAEVLLNARCDLHAVNYHGDTPLHIAARESYHDCVLLFLSRGANPELRNKEGDTAWDLTPERSDVWFALQLNRKLRLGVGNRAIRTEKIICRDVARGYENVPIPCVNGVDGEPCPEDYKYISENCETSTMNIDRNITHLQHCTCVDDCSSSNCLCGQLSIRCWYDKDGRLLQEFNKIEPPLIFECNQACSCWRNCKNRVVQSGIKVRLQLYRTAKMGWGVRALQTIPQGTFICEYVGELISDAEADVREDDSYLFDLDNKDGEVYCIDARYYGNISRFINHLCDPNIIPVRVFMLHQDLRFPRIAFFSSRDIRTGEELGFDYGDRFWDIKSKYFTCQCGSEKCKHSAEAIALEQSRLARLDPHPELLPELGSLPPVNT [EHMT2]”, the thermal stability score was 1.11 in the data set with HeLa Kyoto [1] (setting [5]) and 1.87 in the data set on HeLa Kyoto [1] (cell cycle stage: mitosis). Besides, the “solubility in G1/S (log2)” value in the data set on HeLa Kyoto [2] is -0.563. For the same sequence, the “solubility change mitosis (log2)” value with HeLa Kyoto [3] came to 0.189. Further, the melting temperature in the data set with HeLa Kyoto [4] (cell cycle stage: G1/S) came out at 50.1 °C; in the data set on HeLa Kyoto [4] (cell cycle stage: mitosis), 49.9 °C.

As to “MAAAAGDADDEPRSGHSSSEGECAVAPEPLTDAEGLFSFADFGSALGGGGAGLSGRASGGAQSPLRYLHVLWQQDAEPRDELRCKIPAGRLRRAARPHRRLGPTGKEVHALKRLRDSANANDVETVQQLLEDGADPCAADDKGRTALHFASCNGNDQIVQLLLDHGADPNQRDGLGNTPLHLAACTNHVPVITTLLRGGARVDALDRAGRTPLHLAKSKLNILQEGHAQCLEAVRLEVKQIIHMLREYLERLGQHEQRERLDDLCTRLQMTSTKEQVDEVTDLLASFTSLSLQMQSMEKR [ANKRD54]”, the thermal stability score in the data set on HeLa Kyoto [1] (setting [5]) worked out at 0.324; in the data set with HeLa Kyoto [1] (cell cycle stage: mitosis), 3.1. Besides, the “solubility in G1/S (log2)” value with HeLa Kyoto [2] was 0.0925. For the same sequence, in the data set on HeLa Kyoto [3], the “solubility change mitosis (log2)” value was -0.169. Also, in the data set with HeLa Kyoto [4] (cell cycle stage: G1/S), the melting temperature amounted to 51 °C.

With “MAAAAGSCARVAAWGGKLRRGLAVSRQAVRSPGPLAAAVAGAALAGAGAAWHHSRVSVAARDGSFTVSAQKNVEHGIIYIGKPSLRKQRFMQFSSLEHEGEYYMTPRDFLFSVMFEQMERKTSVKKLTKKDIEDTLSGIQTAGCGSTFFRDLGDKGLISYTEYLFLLTILTKPHSGFHVAFKMLDTDGNEMIEKREFFKLQKIISKQDDLMTVKTNETGYQEAIVKEPEINTTLQMRFFGKRGQRKLHYKEFRRFMENLQTEIQEMEFLQFSKGLSFMRKEDFAEWLLFFTNTENKDIYWKNVREKLSAGESISLDEFKSFCHFTTHLEDFAIAMQMFSLAHRPVRLAEFKRAVKVATGQELSNNILDTVFKIFDLDGDECLSHEEFLGVLKNRMHRGLWVPQHQSIQEYWKCVKKESIKGVKEVWKQAGKGLF [MICU2]”, the thermal stability score in the data set with HeLa Kyoto [1] (setting [5]) is 0.279; with HeLa Kyoto [1] (cell cycle stage: mitosis) it was 0.383. The “solubility in G1/S (log2)” value with HeLa Kyoto [2] is -0.297. Also, the “solubility change mitosis (log2)” value in the data set with HeLa Kyoto [3] was -0.111. In addition, the melting temperature in the data set on HeLa Kyoto [4] (cell cycle stage: G1/S) and in the data set with HeLa Kyoto [4] (cell cycle stage: mitosis) was 52.1 °C throughout.

Take “MAAAALGQIWARKLLSVPWLLCGPRRYASSSFKAADLQLEMTQKPHKKPGPGEPLVFGKTFTDHMLMVEWNDKGWGQPRIQPFQNLTLHPASSSLHYSLQLFEGMKAFKGKDQQVRLFRPWLNMDRMLRSAMRLCLPSFDKLELLECIRRLIEVDKDWVPDAAGTSLYVRPVLIGNEPSLGVSQPTRALLFVILCPVGAYFPGGSVTPVSLLADPAFIRAWVGGVGNYKLGGNYGPTVLVQQEALKRGCEQVLWLYGPDHQLTEVGTMNIFVYWTHEDGVLELVTPPLNGVILPGVVRQSLLDMAQTWGEFRVVERTITMKQLLRALEEGRVREVFGSGTACQVCPVHRILYKDRNLHIPTMENGPELILRFQKELKEIQYGIRAHEWMFPV [BCAT2]”: the thermal stability score with HeLa Kyoto [1] (setting [5]) is -0.771; with HeLa Kyoto [1] (cell cycle stage: mitosis) it was -0.0554. Besides, the “solubility in G1/S (log2)” value in the data set with HeLa Kyoto [2] is -0.077. Further, in the data set on HeLa Kyoto [3], the “solubility change mitosis (log2)” value is -0.156. Also, the melting temperature in the data set with HeLa Kyoto [4] (cell cycle stage: G1/S) is 55.4 °C; in the data set on HeLa Kyoto [4] (cell cycle stage: mitosis), 55.1 °C.
